The target of this assay is NKG2D on human γδ T cells (human) (UniProt P26718). As to the kind of experiment: cell-based or functional assay.
Chain of NKG2D on human γδ T cells (human) (P26718 whole entry, stated change not applied, the tested form may be a part): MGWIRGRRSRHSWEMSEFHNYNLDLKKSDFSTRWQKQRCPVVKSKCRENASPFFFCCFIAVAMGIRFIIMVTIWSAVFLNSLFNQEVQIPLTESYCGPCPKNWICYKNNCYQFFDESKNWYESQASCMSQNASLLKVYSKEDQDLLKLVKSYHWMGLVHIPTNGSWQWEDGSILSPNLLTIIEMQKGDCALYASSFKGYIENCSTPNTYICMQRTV
In the case of “MICA-Fc fusion protein (from UniProt Q29983 24-307)”, the frequency of Vγ9+ T cells expressing CD107a (plate-bound, together with BTN2A1/3A1-Fc-CD19scFv) came out at 18 % γδ T cells.
The figure for “MICB-Fc fusion protein (from UniProt Q29980 23-298)” is 18 % γδ T cells; for “anti-NKG2D antibody (Clone #149810, R&D Systems)” it is 30 % γδ T cells.
